Measured values as given in PMC9785946, “Bioorthogonal Chemistry Approach for the Theranostics of GRPR-Expressing Cancers” (Pharmaceutics, 2022).
Several values for one entry are separate records, joined by “and”; a condition that tells them apart may be missing. Equal entries are not always repeated. Where two headings read alike, the source gives them in different places.

Key:
PC3 cells = assay: Cellular uptake, internalization and blocking assays in PC3 cells; format: cell-based, human; conditions: 37 °C
Description: The time-dependent accumulation of ^111In-conjugates in PC3 cells was evaluated according to a previously described procedure. Briefly, PC3 cells were incubated at 37 °C for 5 min to 4 h with about 7.4 kBq of the tested radioconjugates. To assess the surface binding, the cells were treated twice with glycine buffer (50 mM glycine-HCl/100 mM NaCl, pH 2.8). Then, the cells were lysed with NaOH 1 M (internalized radioconjugate). The activity in both cell surface-bound and internalized fractions was measured in a γ-counter and reported as a percentage of the total applied radioactivity. The total cellular uptake was calculated by the addition of the activities recovered from the surface binding and internalized fractions. Assays for each time point were performed in quadruplicate, and data were presented as average ± SD of typically three independent experiments.
To assess the specific GRPR-mediated cellular uptake and internalization of radioconjugates (receptor blocking studies), a similar study was performed in which cells were incubated with the [^111In]In-DOTA-Tz-TCO-PEG4-AR for 1, 2 and 4 h, with or without the GRPR agonist Tyr4-Bombesin (0.25 µg/0.5 mL/well).

[1] = Biodistribution of 111In-radioconjugates/radiocomplex in PC3 xenografts-bearing mice; format: in vivo, Balb/c-male nude mice; conditions: male, Balb/c nude, mouse, iv, total radioactivity; for tissue uptake at […]: 15 min p.i.
Text: (§1) Blood samples were taken by cardiac puncture at sacrifice.

[2] = test system: PC3 xenografts-bearing mice; assay: as above; format: in vivo, Balb/c-male nude mice
Text: as §1

[3] = Description: The octanol–water partition coefficients (Po/w) of the radioconjugates (20 µL, typically 1 to 5 MBq) were determined by the “shake-flask” method, as previously described.
[4] = 15 min p.i., listed as [111In]In-DOTA-Tz-TCO-PEG4-AR
[5] = 1 h p.i., blocking (excess of agonist)
[6] = 15 min p.i., listed as [111In]In-DOTA-Tz
[7] = 1 h p.i., listed as [111In]In-DOTA-Tz

In the case of `CC(C)C[C@H](NC(=O)C[C@H](O)[C@H](CC(C)C)NC(=O)[C@H](Cc1c[nH]cn1)NC(=O)CNC(=O)[C@@H](NC(=O)[C@H](C)NC(=O)[C@H](Cc1c[nH]c2ccccc12)NC(=O)[C@H](CCC(N)=O)NC(=O)[C@@H](Cc1ccccc1)NC(=O)CCOCCOCCOCCOCCNC(=O)OC1CCCc2c(cnnc2-c2ccc(CNC(=O)CN3CCN(CC(=O)O)CCN(CC(=O)O)CCN(CC(=O)O)CC3)cc2)CC1)C(C)C)C(N)=O` (stereo partly shown) [[^111In]In-DOTA-Tz-TCO-PEG4-AR, metal not drawn], the “Distribution of cell-associated activity (surface-bound vs internalized)” value (PC3 cells) is reported as “mainly bound to the cell membrane”, the Cellular uptake (PC3 cells; start of the assay) is reported as 17 % of the total activity applied per million cells and the tissue uptake at 1 h ([1]; heart, 1 h p.i., read-out: Heart uptake) is reported as 0.815 %ID/g. For the same compound, the dose excreted at 1 h ([1]; in vivo, 1 h p.i., read-out: Excretion) was 74.8%, the dose excreted at 24 h ([1]; in vivo, 24 h post-injection, mainly through the renal system, read-out: Injected activity excreted) was 97% and the tissue uptake at 1 h ([1]; intestine, 1 h p.i., read-out: Intestine uptake) was 1.85 %ID/g. It also gave a tissue uptake at […] ([1]; kidneys, read-out: Kidneys uptake) of 15.4 ± 6.2 %ID/g, a tissue uptake at 1 h ([1]; kidneys, 1 h p.i., read-out: Kidneys uptake) of 5.33 %ID/g and a tissue uptake at […] ([1]; liver, read-out: Liver uptake) of 6 %ID/g. For the same compound, the tissue uptake at 1 h ([1]; lungs, 1 h p.i., read-out: Lungs uptake) was 1.61 %ID/g, the tissue uptake at 1 h ([1]; muscle, 1 h p.i., read-out: Muscle uptake) was 0.875 %ID/g and the tissue uptake at 2 h ([1]; pancreas, 2 h p.i.) was 11 %ID/g. The tissue uptake at 1 h ([1]; pancreas, with excess of agonist (receptor blocking), 1 h p.i., blocking (excess of agonist), read-out: Pancreas uptake) was 1.6 ± 0.6 %ID/g, the tissue uptake at 1 h ([1]; stomach, 1 h p.i., read-out: Stomach uptake) was 2.62 %ID/g and the tissue uptake at 1 h ([1]; tumor (PC3 xenograft), 1 h p.i., read-out: Tumor uptake) was 9.57 %ID/g. The tissue uptake at 1 h ([1]; tumor (PC3 xenograft), with excess of agonist (receptor blocking), 1 h p.i., blocking (excess of agonist), read-out: Tumor uptake) was 4.4 ± 2 %ID/g, the Blood uptake ([2]; 15 min p.i.) was 6. 7 % I.D./g and the Bone uptake ([2]; 15 min p.i.) was 7. 2 % I.D./g. The Excretion ([2]; 15 min p.i.) was 17. % I.D, the Heart uptake ([2]; 15 min p.i.) was 5. 4 % I.D./g and the Intestine uptake ([2]; 15 min p.i.) was 3. 6 % I.D./g. For the same compound, the Lungs uptake ([2]; 15 min p.i.) was 9. 6 % I.D./g, the Muscle uptake ([2]; 15 min p.i.) was 3. 8 % I.D./g and the Pancreas uptake ([2]; 15 min p.i.) was 25.2 ± 3 % I.D./g and 25.2 ± 0.2 % I.D./g. For the same compound, the Spleen uptake ([2]; 15 min p.i.) was 3. 6 % I.D./g, the Stomach uptake ([2]; 15 min p.i.) was 10. 6 % I.D./g and the Tumor uptake ([2]; 15 min p.i.) was 8.4 ± 0.5 % I.D./g. For the same compound, the Kidneys uptake [2, 4] was 15. 4 % I.D./g, the Pancreas uptake [2, 4] was 25. 2 % I.D./g and the Tumor uptake [2, 4] was 8. 4 % I.D./g. The Blood uptake ([2]; 1 h p.i.) was 2. 62 % I.D./g, the Bone uptake ([2]; 1 h p.i.) was 0. 85 % I.D./g and the Liver uptake ([2]; 1 h p.i.) was 1. 15 % I.D./g. For the same compound, the Pancreas uptake ([2]; 1 h p.i.) was 13.9 ± 1.6 % I.D./g, the Spleen uptake ([2]; 1 h p.i.) was 1. 32 % I.D./g and the Tumor uptake ([2]; 1 h p.i.) was 9.6 ± 1.7 % I.D./g. The Blood uptake [2, 5] was 3. 08 % I.D./g, the Bone uptake [2, 5] was 1. 395 % I.D./g and the Excretion [2, 5] was 51. % I.D. For the same compound, the Heart uptake [2, 5] was 1. 11 % I.D./g, the Intestine uptake [2, 5] was 0. 995 % I.D./g and the Kidneys uptake [2, 5] was 8. 435 % I.D./g. For the same compound, the Liver uptake [2, 5] was 1. 63 % I.D./g, the Lungs uptake [2, 5] was 2. 135 % I.D./g and the Muscle uptake [2, 5] was 1. 755 % I.D./g. For the same compound, the Pancreas uptake [2, 5] was 1. 685 % I.D./g, the Spleen uptake [2, 5] was 0. 83 % I.D./g and the Stomach uptake [2, 5] was 1. 16 % I.D./g. The Tumor uptake [2, 5] was 4. 445 % I.D./g, the Pancreas uptake ([2]; 1 h p.i., listed as [111In]In-DOTA-Tz-TCO-PEG4-AR) was 13. 875 % I.D./g and the Blood uptake ([2]; 2 h p.i.) was 1. 7 % I.D./g. The Bone uptake ([2]; 2 h p.i.) was 0. 7 % I.D./g, the Excretion ([2]; 2 h p.i.) was 84. % I.D and the Heart uptake ([2]; 2 h p.i.) was 0. 5 % I.D./g. For the same compound, the Intestine uptake ([2]; 2 h p.i.) was 1. 1 % I.D./g, the Kidneys uptake ([2]; 2 h p.i.) was 5. 4 % I.D./g and the Liver uptake ([2]; 2 h p.i.) was 1. 7 % I.D./g. For the same compound, the Lungs uptake ([2]; 2 h p.i.) was 1. 1 % I.D./g, the Muscle uptake ([2]; 2 h p.i.) was 0. 6 % I.D./g and the Pancreas uptake ([2]; 2 h p.i.) was 11 ± 2.5 % I.D./g. The Spleen uptake ([2]; 2 h p.i.) was 0. 6 % I.D./g, the Stomach uptake ([2]; 2 h p.i.) was 2. 1 % I.D./g and the Tumor uptake ([2]; 2 h p.i.) was 13.1 ± 1.7 % I.D./g. For the same compound, the Tumor uptake ([2]; 2 h p.i., listed as [111In]In-DOTA-Tz-TCO-PEG4-AR) was 13. 1 % I.D./g, the Blood uptake ([2]; 24 h p.i.) was 0. 16 % I.D./g and the Bone uptake ([2]; 24 h p.i.) was 0. 038 % I.D./g. For the same compound, the Excretion ([2]; 24 h p.i.) was 96. % I.D, the Heart uptake ([2]; 24 h p.i.) was 0. 065 % I.D./g and the Intestine uptake ([2]; 24 h p.i.) was 0. 12 % I.D./g. For the same compound, the Kidneys uptake ([2]; 24 h p.i.) was 1. 17 % I.D./g, the Liver uptake ([2]; 24 h p.i.) was 0. 21 % I.D./g and the Lungs uptake ([2]; 24 h p.i.) was 0. 12 % I.D./g. The Muscle uptake ([2]; 24 h p.i.) was 0. 034 % I.D./g, the Pancreas uptake ([2]; 24 h p.i.) was 0. 14 % I.D./g and the Spleen uptake ([2]; 24 h p.i.) was 0. 065 % I.D./g. For the same compound, the Stomach uptake ([2]; 24 h p.i.) was 0. 09 % I.D./g, the Tumor uptake ([2]; 24 h p.i.) was 0. 76 % I.D./g and the logP [3] was -1.2 ± 0.04.

In the case of `O=C([O-])CN1CCN(CC(=O)[O-])CCN(CC(=O)NCc2ccc(-c3nncnn3)cc2)CCN(CC(=O)[O-])CC1.[111In+3]` [[^111In]In-DOTA-Tz], the Blood uptake ([2]; 15 min p.i.) is reported as 2. 7 % I.D./g, the Bone uptake ([2]; 15 min p.i.) is reported as 0. 8 % I.D./g and the Excretion ([2]; 15 min p.i.) is reported as 61. % I.D. For the same compound, the Heart uptake ([2]; 15 min p.i.) was 0. 9 % I.D./g, the Intestine uptake ([2]; 15 min p.i.) was 0. 4 % I.D./g and the Kidneys uptake ([2]; 15 min p.i.) was 4. 4 % I.D./g. The Liver uptake ([2]; 15 min p.i.) was 0. 9 % I.D./g, the Lungs uptake ([2]; 15 min p.i.) was 1. 4 % I.D./g and the Muscle uptake ([2]; 15 min p.i.) was 0. 8 % I.D./g. For the same compound, the Pancreas uptake ([2]; 15 min p.i.) was 0.42 ± 0.02 % I.D./g, the Spleen uptake ([2]; 15 min p.i.) was 0. 45 % I.D./g and the Stomach uptake ([2]; 15 min p.i.) was 0. 4 % I.D./g. The Tumor uptake ([2]; 15 min p.i.) was 2.46 ± 0.6 % I.D./g, the Pancreas uptake [2, 6] was 0. 42 % I.D./g and the Tumor uptake [2, 6] was 2. 46 % I.D./g. The Blood uptake ([2]; 1 h p.i.) was 0. 4 % I.D./g, the Bone uptake ([2]; 1 h p.i.) was 0. 2 % I.D./g and the Excretion ([2]; 1 h p.i.) was 88 % I.D. The Heart uptake ([2]; 1 h p.i.) was 0. 17 % I.D./g, the Intestine uptake ([2]; 1 h p.i.) was 0. 29 % I.D./g and the Kidneys uptake ([2]; 1 h p.i.) was 2. 1 % I.D./g. For the same compound, the Liver uptake ([2]; 1 h p.i.) was 0. 4 % I.D./g, the Lungs uptake ([2]; 1 h p.i.) was 0. 38 % I.D./g and the Muscle uptake ([2]; 1 h p.i.) was 0. 1 % I.D./g. The Pancreas uptake ([2]; 1 h p.i.) was 0.09 ± 0.06 % I.D./g, the Spleen uptake ([2]; 1 h p.i.) was 0. 14 % I.D./g and the Stomach uptake ([2]; 1 h p.i.) was 0. 17 % I.D./g. The Tumor uptake ([2]; 1 h p.i.) was 0.5 ± 0.2 % I.D./g, the Pancreas uptake [2, 7] was 0. 09 % I.D./g and the Tumor uptake [2, 7] was 0. 5 % I.D./g. The Blood uptake ([2]; 24 h p.i.) was 0. 03 % I.D./g, the Bone uptake ([2]; 24 h p.i.) was 0. 04 % I.D./g and the Excretion ([2]; 24 h p.i.) was 97. % I.D. For the same compound, the Heart uptake ([2]; 24 h p.i.) was 0. 02 % I.D./g, the Intestine uptake ([2]; 24 h p.i.) was 0. 09 % I.D./g and the Kidneys uptake ([2]; 24 h p.i.) was 0. 87 % I.D./g. The Liver uptake ([2]; 24 h p.i.) was 0. 12 % I.D./g, the Lungs uptake ([2]; 24 h p.i.) was 0. 07 % I.D./g and the Muscle uptake ([2]; 24 h p.i.) was 0. 021 % I.D./g. The Pancreas uptake ([2]; 24 h p.i.) was 0. 03 % I.D./g, the Spleen uptake ([2]; 24 h p.i.) was 0. 08 % I.D./g and the Stomach uptake ([2]; 24 h p.i.) was 0. 03 % I.D./g. The Tumor uptake ([2]; 24 h p.i.) was 0. 13 % I.D./g.

In the case of `CC(C)C[C@H](NC(=O)C[C@H](O)[C@H](CC(C)C)NC(=O)[C@H](Cc1c[nH]cn1)NC(=O)CNC(=O)[C@@H](NC(=O)[C@H](C)NC(=O)[C@H](Cc1c[nH]c2ccccc12)NC(=O)[C@H](CCC(N)=O)NC(=O)[C@@H](Cc1ccccc1)NC(=O)CN1CCC(NC(=O)OC2CCCc3c(cnnc3-c3ccc(CNC(=O)CCC(C(=O)O)N4CCN(CC(=O)O)CCN(CC(=O)O)CCN(CC(=O)O)CC4)cc3)CC2)CC1)C(C)C)C(N)=O` (stereo partly shown) [[^111In]In-DOTAGA-Tz-TCO-Pip-AR, metal not drawn], the “Distribution of cell-associated activity (surface-bound vs internalized)” value (PC3 cells) is reported as “almost all cell-associated activity corresponded to the membrane-bound fraction”, the Maximum cellular uptake (PC3 cells; 5 min to 4 h) is reported as “around 10 % of the total activity applied per million cells” and the logP [3] is reported as -0.9.
